Results as given in the supplement of paper PMC10567573.

B1: ZC3H15 (parent)
chain: ENLFTGEDLDELEEELNTLDLEE
B2: WEE1 (parent)
chain: FLGSSFSPVRCGGPGDASPRGCGA

Variants of: B1
Experiment: protein stability index of a GFP-peptide fusion (GPS, HEK-293T) (PSI 1-6); higher = more stable
Conditions: c terminus: native
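Also: lentivirally expressed fusions sorted by FACS into six bins by GFP to DsRed ratio, PSI derived from sequencing read proportions per bin multiplied by bin number.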

Protein stability index of substitutions, site by site:
N2: I 3.61; C 4.28; W 3.12; S 4.6; Y 4.78; V 4.17; T 4.23; R 4.94; P 4.24; Q 4.71; E 4.39; M 4.08; H 4; K 3.49
E1: Y 3.58; D 4.19; K 3.59; M 3.76; P 4.12; F 3.23; S 4.42; V 4.25; N 4.12; Q 4.14; L 4.16; T 4.11; C 3.8; I 3.24; A 4.26; W 2.89; H 3.66
L3: W 3.55; A 4.1; R 4.71; Q 4.62; T 4.71; P 4.65; Y 3.6; C 3.83; K 4.06; D 5.09; S 5.2; N 4.8; G 4.81; I 4.57; V 4.6; H 4.39; M 5.09; E 4.08
F4: C 5.49; A 4.68

Variants of: B2
Experiment: as above
Conditions: c terminus: a fixed tail appended

Protein stability index, by site and new letter:
A24: Y 1.75; Q 1.52; K 2.17; M 1.02; S 1.58; E 1.88; G 1.75; H 1.52; T 2.01; L 1.82; I 1.42
L2: N 2.45; G 1.93; K 3.1; E 3.41; P 2.04; R 3.13; Y 2.19; M 2.07; S 3.18; F 2.51
P8: L 2.15; T 1.43; E 2.23; F 2.49; W 2.83; S 2.51; I 1.23; H 1.71; V 1.97; Y 1.78; R 1.48
C11: Q 2.48; S 2.62; A 2.78; D 3.3; R 2.69; E 2.39; K 1.91; G 2.34; N 2.53; L 2.22; H 2.1; P 2.44; F 2.19; W 1.46; I 2.12; M 2.4
P14: F 3.56; T 1.15; N 1.85; Y 2.42; W 1.94; R 2.35; K 2.81; Q 2.42; A 1.45; V 1.35; H 1.86; S 2.24
S18: C 1.86; D 2.16; L 2; P 2.89; K 2.07; F 1.86; R 1.68; N 1.84; E 2.15; M 1.62; A 1.71; Q 1.96
G12: F 1.43; C 2.04; E 2.03; Q 2.07; N 2.56; L 2.44; M 1.83; Y 2.65; T 1.63; V 1.43; H 3.11; I 1.3
V9: T 1.88; H 2.22; R 2.39; Q 1.76; D 2.58; G 2.25; N 2.51; Y 1.25; E 2.79; C 3.15; I 1.8; A 2.11; M 2.69; K 1.93; P 2.58
C22: Y 2.1; H 2.94; Q 1.73; F 2.48; M 1.87; N 1.8; E 1.95; K 2.17; A 1.88; W 2.96; T 2.47; R 2.27
F6: L 2.84; V 2.15; I 3.26; P 3.52; E 3.91; M 3.29; S 2.87; Q 3.41; H 2.48; R 2.95
G23: I 2.35; F 2.37; V 1.73; S 1.82; R 1.79; N 1.66; Q 1.73; L 1.09; K 1.71; D 2.22; M 1.63; E 1.75; C 2.64; T 1.7; A 2.4
G13: P 2.12; M 1.58; F 1.51; N 2.38; Y 1.63; W 1.56; K 2.29; S 2.29; A 1.94; C 2.58
S7: C 2.41; L 1.48; E 2.5; D 3.47; R 2.38; Y 2.16; N 2.22; K 2.47; Q 1.93; H 1.81
R20: G 1.36; Y 3.14; P 2.14; M 1.57; E 2.28; H 1.33; T 1.8; I 1.23; Q 2.12; A 2.27
G3: A 2.19; H 2.85; N 1.32; R 2.34; S 1.92; L 1.65; F 2.67; Q 2.33; Y 1.91; E 2.58; K 2.16
S5: T 1.59; H 1.73; R 1.63; Q 1.58; D 2.37; L 2.13; V 1.39
R10: L 2.52; Q 1.84; I 2.25; Y 1.07; H 2.63; T 2.25; W 4.78; E 3.27; N 2.33; S 1.8; G 1.42; K 2.68
F1: R 2.46; Y 1.87; C 2.82; Q 3.36; M 2.29; T 2.82; I 2.72; D 2.95; K 2.95; A 2.89
P19: V 2.23; T 1.88; K 1.93; E 2.14; R 2.38; I 1.57; H 1.25; Y 1.12; D 2; F 2.62; M 1.35; C 1.98
G15: V 1.65; S 2.02; Q 1.45; P 1.75; N 1.77; E 1.59; C 1.25; L 2.68; H 1.76; W 3.02; R 1.56; Y 2.37; M 1.88
G21: N 1.55; C 3.5; Q 2.17; M 1.76; A 1.92; S 1.67; E 2.06; D 1.64; K 1.81; P 1.91; T 2.08; F 1.64
D16: R 2.06; P 1.73; C 2.57; T 1.57; Y 1.23; A 1.26; I 1.61; K 1.81; F 2.35; S 2.09; Q 1.86; M 2.45
S4: K 2.34; H 1.24; L 1.48; A 1.79; P 1.82; Y 1.75; N 2.07; T 1.56; R 1.69; E 2.65; Q 1.86; F 1.93; C 2.19
A17: D 2.34; V 1.47; N 1.99; M 1.56; F 1.54; S 1.39; P 2.31; Q 1.53; E 1.95; R 2.21; H 1.8; K 1.53; G 2.07; Y 1.95; C 2.06
